Legend:
[1] = target: B. subtilis S72N TRAP (trp RNA-binding attenuation protein, S72N mutant) (B. subtilis) (UniProt P19466); experiment: native MS; nanoflow electrospray of purified S72N TRAP picked by SEC (elution volume less than 14.5 ml); methods in Text S1
[2] = target: B. subtilis S72N TRAP (trp RNA-binding attenuation protein, S72N mutant) (B. subtilis) (UniProt P19466); experiment: crystal structure; hanging drop vapor diffusion at 18°C; protein in 10 mM triethanolamine pH 8.0, 100 mM NaCl, 15 mM L-tryptophan, 33.5 mg/ml; six subunits in the asymmetric unit, 12-mer generated by the crystallographic 2-fold axis of P2(1)2(1)2

stoichiometry N [1]: 12
stoichiometry N [2]: 12
Substance: B. subtilis S72N TRAP (trp RNA-binding attenuation protein, S72N mutant) (from UniProt P19466 1-71) (natural protein)

— PMC3435397
